These results are taken from patent US20230235075A1 (DYNAMICURE BIOTECHNOLOGY, published 2023).

Assay [1] deals with T1, Human CD93 on the cell surface (human CD93 expressing CHO cells; HUVEC, U937 and KG1a cells) (human, UniProt Q9NPY3 22-652).
T1 construct: whole, on cells; also called hCD93 CHO cells; CHO-hCD93
T1 sequence (looked up): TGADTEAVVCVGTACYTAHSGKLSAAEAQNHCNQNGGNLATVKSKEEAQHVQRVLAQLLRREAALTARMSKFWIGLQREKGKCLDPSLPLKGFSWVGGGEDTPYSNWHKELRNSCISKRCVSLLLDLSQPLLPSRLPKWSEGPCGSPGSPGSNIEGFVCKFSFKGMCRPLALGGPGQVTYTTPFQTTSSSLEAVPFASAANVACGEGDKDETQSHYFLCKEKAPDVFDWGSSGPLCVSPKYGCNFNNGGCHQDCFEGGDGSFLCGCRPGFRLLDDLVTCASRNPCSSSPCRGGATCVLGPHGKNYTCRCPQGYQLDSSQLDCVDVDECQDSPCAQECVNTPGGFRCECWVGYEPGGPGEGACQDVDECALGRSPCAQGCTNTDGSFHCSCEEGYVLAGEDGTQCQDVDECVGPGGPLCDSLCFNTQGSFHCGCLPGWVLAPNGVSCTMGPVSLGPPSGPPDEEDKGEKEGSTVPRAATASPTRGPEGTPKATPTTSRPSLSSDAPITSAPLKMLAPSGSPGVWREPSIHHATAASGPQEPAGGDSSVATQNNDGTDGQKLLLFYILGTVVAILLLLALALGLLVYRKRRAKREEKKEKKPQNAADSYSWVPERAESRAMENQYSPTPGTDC
Nature of the assay: FACS, human CD93 expressing CHO cells, serially diluted antibody. The procedure: Binding of anti-CD93 antibodies 7F3 and 16E4 to cell surface expressing human CD93 CHO cells was determined by fluorescence activated cell sorting (FACS) assay. Human CD93 expressing CHO cells were detached by incubation with TrypLE reagents (Thermo Fisher), which preserves the integrity of CD93 on the cell surface. Then the cells were incubated with serially diluted anti-CD93 antibodies for 30 minutes in 4° C. After washing by FACS buffer, the cells were incubated with Alexa Fluor 647 conjugated anti-human IgG (Jackson ImmunoResearch) for 30 minutes in 4° C. After washing by FACS buffer twice, the samples were acquired in NovoCyte Flow Cytometer and analyzed by NovoExpress software.

The target in assay [2] is T1, Human CD93 on the cell surface (human …). Nature of the assay: FACS, CHO cells overexpressing human CD93.
The target in assay [3] is T2, Human CD93 recombinant protein (Sino Biological Inc, Catalog #12589-H08H) (human, UniProt Q9NPY3 22-580, biotinylated with EZ-LINK NHS-PEG4 biotin in the Octet assays).
T2 construct: also called hCD93; His-tagged human CD93
T2 sequence (looked up): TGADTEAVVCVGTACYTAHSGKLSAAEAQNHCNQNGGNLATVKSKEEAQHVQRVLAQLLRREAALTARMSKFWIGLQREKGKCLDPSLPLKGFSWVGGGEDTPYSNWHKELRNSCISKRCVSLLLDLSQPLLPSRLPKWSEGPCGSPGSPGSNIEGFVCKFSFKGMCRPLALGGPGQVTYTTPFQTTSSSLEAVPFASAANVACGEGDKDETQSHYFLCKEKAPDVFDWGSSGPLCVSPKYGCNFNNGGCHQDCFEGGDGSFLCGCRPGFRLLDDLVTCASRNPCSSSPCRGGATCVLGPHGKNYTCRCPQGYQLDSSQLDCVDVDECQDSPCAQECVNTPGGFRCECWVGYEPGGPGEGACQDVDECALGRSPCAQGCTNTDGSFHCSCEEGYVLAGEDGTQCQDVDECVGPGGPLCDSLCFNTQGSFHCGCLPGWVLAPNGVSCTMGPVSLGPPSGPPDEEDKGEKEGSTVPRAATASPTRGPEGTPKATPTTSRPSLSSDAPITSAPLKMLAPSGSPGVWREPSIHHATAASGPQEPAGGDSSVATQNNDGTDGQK
Nature of the assay: ELISA, His-tagged human CD93 coated at 1 µg/mL. The procedure: 17B10 antibody produced by hybridoma (17B10-Hyb in FIG. 33) was compared to recombinant parental 17B10-hFc (17B10-hIgG1 in FIG. 33) and humanized 17B10-mFc (h17B10-H3L3 in FIG. 33) to determine the binding to human CD93. His-tagged human CD93 was coated onto a 96 well plate at 1 μg/mL in 1×PBS overnight at 4° C. The plate was washed with ELISA wash buffer (Boston BioProduct, Inc.) and the wells were blocked with ELISA blocking buffer for 1 hour at 37° C. Purified 17B10 antibodies were serially diluted in ELISA blocking buffer (Boston BioProduct, Inc.) and incubated on the receptor for 1 hour at 37° C. The plate was washed with ELISA wash Buffer. HRP conjugated Anti-mouse Fc was diluted in ELISA blocking buffer and added to the wells containing the hybridoma produced 17B10. HRP conjugated anti-human Fc was added to the well containing the recombinant 17B10 antibodies for 1 hour at 37° C. The plate was washed with ELISA wash Buffer. HRP substrate was added for indirect detection of the antibodies binding to CD93.
For orientation: In an ELISA, binding on a coated surface is turned into a signal by an enzyme label.

For assay [4], the target named is T1, Human CD93 on the cell surface (human …). As to the kind of experiment: summary table, column 'Binding' (assay not given).
Assay [5] has the same target. Nature of the assay: flow cytometry, primary HUVEC cells, with and without human serum. The method, then: Recombinant parental anti-CD93 antibodies were evaluated for their ability to bind to HUVEC cells in the presence or absence of human serum. The 16E4, 7F3, 16A1, and 17B10 sequences obtained from the hybridoma cells were expressed recombinantly with a human CH1 domain and mouse IgG1 CH2 and CH3 Fc domains. Antibodies were purified using Protein G Sepharose. The resulting antibodies were tested for its binding capacity to a variety of cells that express CD93. […] Cells were quenched with media then counted. Cells were resuspended in FACS buffer (ice cold PBS with 0.5% BSA) and human serum was added to 20% (10% final volume) and put on ice for approximately 20 minutes. 5×10⁴ cells were seeded per well in 100 μL media and incubated with serial diluted anti-CD93 antibodies in 100 μL on ice for 2 hours. Cells were then washed by spinning cells at 1200 rpm for 5 min. Media was discarded and cells were resuspended in 200 μL ice cold FACS buffer. The wash step was repeated and cells were resuspended in 100 μL of secondary antibody, AlexaFluor647 conjugated anti-human IgG or anti-mouse IgG antibodies (Jackson ImmunoResearch), diluted 1:500 in FACS buffer. Plates were blocked from light and incubated 1 hour at 4° C. […] Samples were stored at 4° C. covered in foil, then were acquired in NovoCyte Flow Cytometer and analyzed by NovoExpress software.

In assay [6] the target is T2, Human CD93 recombinant protein (Sino …). Nature of the assay: BLI (Octet QKe), biotinylated CD93 on streptavidin sensors.

B1: 16E4-hIgG1 (antibody, V domains shown)
VH: QVQLQQPGAELVKPGASVKLSCKASGYTFTSYWMHWVKQRPGQGLEWIGEIDPSASYTYYNQKFKGKATLTVDKSSSTAYMQLSSLTSEDSAVYYCARSVYYGNKYFDVWGAGTTVTVSS
VL: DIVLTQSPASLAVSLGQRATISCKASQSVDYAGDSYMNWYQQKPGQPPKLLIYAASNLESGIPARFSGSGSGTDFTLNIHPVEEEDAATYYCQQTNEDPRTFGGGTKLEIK
notes: the same paragraph also calls it 'humanized'; also called recombinant 16E4; recombinant chimeric 16E4
With B1, in assay [1], the EC50 (commonly the midpoint of the concentration-response curve) is 0.24 nM.

B2: 7F3-hIgG1 (antibody, V domains shown)
VH: QVQLQQSGADLVRPGASVKLSCKASGYTFTDYEMHWVKQTPVYGLEWIGGIDPETGDTAYNQNFKGKATLTADKSSSAAYMELRSLTSEDSAVYYCTNYGNLYYYAMDYWGQGTSVTVSS
VL: ENVLTQSPAIMSASPGEKVTMTCRASSSVSSSYLHWYQQKSGASPKLWIYSTSNLAFGVPARFSGSGSGTSYSLTISSVEAEDAATYYCQQYSGYPLTFGSGTKLEIK
notes: the same paragraph also calls it 'humanized'; also called recombinant 7F3 antibody; recombinant chimeric 7F3
Molecule B2 displayed an EC50 in assay [1] of 0.4 nM.

B3: Humanized 17B10 (VH3VL3, i.e., H3L3) (antibody, mouse IgG1, V domains shown)
VH: QVQLVQSGPEVKKPGESLKISCKASGYAFSSYWLNWVRQMPGKGLEWMGRIYPGDGDTDYNGKFKGQVTISADKSSGTAYLQLSSLKASDTAVYFCVRGDGYWAMDYWGQGTLVTVSS
VL: DIVMTQSPDSLAVSLGERATINCRFSKSLLHSNGITYLYWYQQKPGQPPKLLIYQMSNLASGVPDRFSGSGSGTDFTLTISSLQAEDVAVYYCAQNLELPWTFGGGTKLEIK
notes: also called h17B10-H3L3; humanized 17B10-mFc
For the molecule B3, the binding result in assay [2] and in assay [3] was “binds” throughout.

B4: 17B10 (hybridoma) (antibody, V domains shown)
VH: QVQLQQSGPELVKPGASVKISCKASGYAFSSYWLNWVKQRPGKGLEWFGRIYPGDGDTDYNGKFKGKATLTADKSSSTAYMQLRSLTSEDSAVYFCVRGDGYWAMDYWGQGTSVTVSS
VL: DIVMTQAAFSNPVTLGTSASISCRFSKSLLHSNGITYLYWYLQKPGQSPQLLIYQMSNLASGVPDRFSSSGSGTDFTLRISRVEAEDVGVYYCAQNLELPWTFGGGTKLEIK
notes: Mouse hybridoma monoclonal antibody, purified over Protein G
Take B4: the binding result in assay [4] and in assay [3] was “binds” in each case.

B5: recombinant parental 17B10-hFc (antibody, human IgG1, V domains shown)
VH: QVQLQQSGPELVKPGASVKISCKASGYAFSSYWLNWVKQRPGKGLEWFGRIYPGDGDTDYNGKFKGKATLTADKSSSTAYMQLRSLTSEDSAVYFCVRGDGYWAMDYWGQGTSVTVSS
VL: DIVMTQAAFSNPVTLGTSASISCRFSKSLLHSNGITYLYWYLQKPGQSPQLLIYQMSNLASGVPDRFSSSGSGTDFTLRISRVEAEDVGVYYCAQNLELPWTFGGGTKLEIK
notes: also called 17B10-hIgG1; recombinant parental 17B10 with the human Fc
Turning to B5, the binding result in assay [3] was “binds”.

B6: Recombinant parental 17B10 (human CH1 domain, mouse IgG1 CH2 and CH3 Fc domains) (antibody, V domains shown)
VH: QVQLQQSGPELVKPGASVKISCKASGYAFSSYWLNWVKQRPGKGLEWFGRIYPGDGDTDYNGKFKGKATLTADKSSSTAYMQLRSLTSEDSAVYFCVRGDGYWAMDYWGQGTSVTVSS
VL: DIVMTQAAFSNPVTLGTSASISCRFSKSLLHSNGITYLYWYLQKPGQSPQLLIYQMSNLASGVPDRFSSSGSGTDFTLRISRVEAEDVGVYYCAQNLELPWTFGGGTKLEIK
As to B6, in assay [5], the binding result is on record as “binds”.

B7: 10B1 (antibody, V domains shown)
VH: QVQLKQSGPGLVQPSQSLSITCTVSDFSLSSFGVNWVRQPPGKGLEWLGVIWSGGSTDYNVAFISRLSISKDNSKSQVFFKMNNLQADDTAIYYCARNWRYDGYFYAMDYWGQGTSVTVSS
VL: DIVMTQSQKFMSTSTGDRVSVTCKASQNVGTNVAWYQQKPGQSPKALIYSASYRFIGVPDRFTGSGSGTDFTLTITNVQSEDLAEYFCQQYNRNPITFGSGTKLEIK
notes: Mouse hybridoma monoclonal antibody; also called 10B1 mAb
Regarding B7, the binding result in assay [4] and in assay [6] was “binds” each time.
